According to patent US20080193426A1, “MIGRATION OF HEMATOPOIETIC STEM CELLS AND PROGENITOR CELLS TO THE LIVER” (YEDA RESEARCH AND DEVELOPMENT CO., LTD., priority 2001, published 2008):

Biological target: T1, CXCR4 (Homo sapiens, UniProt P61073)
T1 construct: homing of human CD34+ enriched MPB cells to the liver of NOD/SCID mice; endogenous in cells; host or cells: CD34+ enriched mobilized peripheral blood cells, thawed and incubated overnight with SLF, transplanted into non-irradiated NOD/SCID mice
T1 sequence (P61073 whole entry): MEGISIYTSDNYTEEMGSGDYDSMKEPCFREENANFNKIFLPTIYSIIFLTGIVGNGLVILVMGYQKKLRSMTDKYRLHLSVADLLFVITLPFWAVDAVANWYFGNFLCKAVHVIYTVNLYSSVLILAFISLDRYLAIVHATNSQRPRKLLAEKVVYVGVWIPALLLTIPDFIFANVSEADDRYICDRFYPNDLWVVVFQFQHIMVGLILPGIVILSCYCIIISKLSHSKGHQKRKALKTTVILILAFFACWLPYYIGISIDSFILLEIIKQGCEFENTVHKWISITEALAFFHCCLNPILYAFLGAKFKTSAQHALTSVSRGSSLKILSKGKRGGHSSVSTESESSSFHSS
Experiment: Homing of human CD34+ enriched MPB cells to the liver of non-irradiated NOD/SCID mice, SDF-1 injected into the liver
Assay type: in vivo
Details: for homing of human stem cells and progenitor cells to the liver (in words): SDF-1 injected into the liver
Procedure: The following experiment was carried out in order to test whether homing of human CD34+ enriched MPB cells to the liver of NOD/SCID mice requires high concentrations of human SDF-1 in the liver.
Frozen […] mobilized peripheral blood (MPB) CD34+ cells were thawed, and incubated at 37° C. over night with 50 ng/ml SLF for recovery. In contrast to the experiment described in example 1, this experiment was carried out with non irradiated mice (not pre-conditioned) and also in non-irradiated mice in which human SDF-1 has been injected directly into the liver immediately prior transplantation. Briefly, non-irradiated NOD/SCID mice were anaesthetized and 1 microgram SDF-1 (in 50 microliter PBS) were injected into the right lobe of the liver. Next, treated and control mice were transplanted intravenously with 8×10^5 CD34+ MPB enriched cells. In one group, CD34+ cells were incubated for 30 min. (4° C.) with 10 micrograms of neutralizing anti-human CXCR4 mAb (12G5), and co-transplanted without washing. Four hours later, the injected lobe was harvested, a single cell suspension was prepared and introduced to flow cytometry analysis, using human specific anti CD34-FITC and anti CD38-PE mAb. Injection of SDF-1 to the liver creates a positive gradient in the liver and a negative gradient in the blood. Since this gradient is maintained for about 4 hours only, therefore the mice were sacrificed and homing was tested rapidly, four hours after cell injection.

## SDF-1: human SDF-1, CXC chemokine and ligand of CXCR4, injected directly into the liver
1 microgram SDF-1 into right liver lobe, 8×10^5 CD34+ MPB cells IV, 12G5 10 micrograms, four hours, flow cytometry
  Number of human cells in the liver per 1 × 10^6 total aquired cells: 38
1 microgram SDF-1 into right liver lobe, four hours after cell injection
  % (number of human cells in the liver, SDF-1 group = 100): 100%
Four hours after cell injection
  homing of human stem cells and progenitor cells to the liver (in words): improves significantly
Four hours after cell injection, listed as human SDF-1
  homing of human stem cells and progenitor cells to the liver (in words): a considerable number of human stem cells and progenitor cells were observed
